{"source": "paper doi:10.1101/803833", "biological_target": "human SNAP-tagged GLP-1R (glucagon-like peptide-1 receptor) on HEK293-SNAP-GLP-1R cells (human) (UniProt P43220)", "sequence (P43220 24-463)": "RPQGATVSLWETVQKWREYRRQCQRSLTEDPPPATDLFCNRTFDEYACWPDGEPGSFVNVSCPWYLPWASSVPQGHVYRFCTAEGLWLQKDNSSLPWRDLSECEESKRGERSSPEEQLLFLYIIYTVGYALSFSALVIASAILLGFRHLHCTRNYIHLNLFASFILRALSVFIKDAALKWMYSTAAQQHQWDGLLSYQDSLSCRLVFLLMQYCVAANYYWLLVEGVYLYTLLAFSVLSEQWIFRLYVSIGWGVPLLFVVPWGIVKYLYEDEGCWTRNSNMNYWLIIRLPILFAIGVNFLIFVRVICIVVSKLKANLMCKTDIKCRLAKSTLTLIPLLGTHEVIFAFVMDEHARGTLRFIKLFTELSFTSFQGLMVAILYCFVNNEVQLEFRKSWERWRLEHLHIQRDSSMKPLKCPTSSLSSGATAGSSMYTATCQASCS", "assay": "FRET or BRET", "data": [{"substance": "exendin-4 (from UniProt P26349 48-87) (peptide)", "values": [{"measurement": "log Kd", "result": -9.2}]}, {"substance": "lixisenatide (peptide)", "values": [{"measurement": "log Kd", "result": -9}]}]}
